Source: paper PMC4528141, “Generating a Metal-responsive Transcriptional Regulator to Test What Confers Metal Sensing in Cells*”

Target: T1, FrmR (Salmonella enterica serovar Typhimurium …, UniProt A0A719I766 1-91)
T1 sequence: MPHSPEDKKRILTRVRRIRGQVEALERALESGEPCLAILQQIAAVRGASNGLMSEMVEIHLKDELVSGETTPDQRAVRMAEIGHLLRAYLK
Test: fluorescence anisotropy; apo, 5 mM EDTA; 10 nM DNA; 2 tetramers:DNA, equal affinity; 10 mM HEPES pH 7.0, 60 mM NaCl, 240 mM KCl, 25 C, anaerobic; 5 mM EDTA (apo) or ZnCl2 (5 uM in text, 20 uM in Table 2)
Details: protein: recombinant; tags: none stated (pET29a NdeI; reverse primer carries native stop); chain copies: 8; label: 5' HEX on strand 1; blunt

B1: frmRAPro (dsDNA)
DNA 1: TTCTGATAGTATACCCCCCTATAGTATATGGAG
DNA 2: CTCCATATACTATAGGGGGGTATACTATCAGAA
- Kd: 99.4 nM
